Measurements taken from the DeepSol protein solubility set.

Experiment: soluble on expression in E. coli; label from the status in PepcDB or PDB records

| Sequence | soluble on expression in E. coli |
| --- | --- |
| MAGDPMPKNKILIYLLSTTLVLPTLVSPTAYADTPQKDTTAKTTSHDSKKSNDDETSKDTTSKDIDKADNNNTSNQDNNDKKFKTIDDSTSDSNNIIDFIYKNLPQTNINQLLTKNKYDDNYSLTTLIQNLFNLNSDISDYEQPRNGEKSTNDSNKNSDNSIKNDTDTQSSKQDKADNQKAPKSNNTKPSTSNKQPNSPKPTQPNQSNSQPASDDKANQKSSSKDNQSMSDSALDSILDQYSEDAKKTQKDYASQSKKDKNEKSNTKNPQLPTQDELKHKSKPAQSFNNDVNQKDTRATSLFETDPSISNNDDSGQFNVVDSKDTRQFVKSIAKDAHRIGQDNDIYASVMIAQAILESDSGRSALAKSPNHNLFGIKGAFEGNSVPFNTLEADGNKLYSINAGFRKYPSTKESLKDYSDLIKNGIDGNRTIYKPTWKSEADSYKDATSHLSKTYATDPNYAKKLNSIIKHYQLTQFDDERMPDLDKYERSIKDYDDSSDEFKPFREVSDSMPYPHGQCTWYVYNRMKQFGTSISGDLGDAHNWNNRAQYRDYQVSHTPKRHAAVVFEAGQFGADQHYGHVAFVEKVNSDGSIVISESNVKGLGIISHRTINAAAAEELSYITGKLEHHHHHH | soluble |
| MSLRAALADLHASIVSARKAPFSDRPIEGSLERCLAALAPLCRRARITRLGDLTGLDRLGLPVMQAVRPAALSEVTSLGRGLSRAEAAVGALMESLERYFAEAIPAERTFLATADQLEVTDGLFENLVVPEWRGKWRQRTIAWIEGIDVVGGSAYPVPLELVHTRYSEPQPAHDGAFLRTTTGLACHTSRHGAFLHGLWECLERDAIARAFGTHGFFDRWRIAPCGLGDGVDHIRSLAGARGISFALWLAPSPAAVPVVWCQTVEAGHGEPILALPTEGYAAGPSIEMAAASAMLEALSARAGAISGARDDQTREHYRRSTDAAVAKARELVLADAASKPGEATYATIPDPGTLLDRVVEAGLGPVLAIPVGVDEEAGVHCVRTVLPGASPFFVLREGHHHHHH | not soluble |
| MGSDKIHHHHHHMNPFQNSFGGHIPQDVAGKQGENVIFIVYNLTDSPDTVDKVKDVCANFSAMIRSMRNRFPDMQFSCTMGFGADAWTRLFPDKGKPKELSTFSEIKGEKYTAVSTPGDLLFHIRAKQMGLCFEFASILDEKLKGAVVSVDETHGFRYMDGKAIIGFVDGTENPAVDENPYHFAVIGEEDADFAGGSYVFVQKYIHDMVAWNALPVEQQEKVIGRHKFNDVELSDEEKPGNAHNAVTNIGDDLKIVRANMPFANTSKGEYGTYFIGYASTFSTTRRMLENMFIGSPAGNTDRLLDFSTAITGTLFFVPSYDLLGELGE | not soluble |
| MGSDKIHHHHHHMQALQTFNFEELPVRTLEVDGEPYFIGKDVADILGYANGRDALSKHVDEDDKKVLTSRNTTLENLPNRGLTAVNESGLYSLIFSSKLESAKRFKRWVTSDVLPAIRKYGIYATDNVIEQTLKDPDYIITVLTEYKKEKEQNLLLQQEIGELKPKADYVDEILKSTGTLATTQIAADYGISAQKLNKLLHEARLQRKVNKQWVLYSEHMGKSYTDSDTITIVRSDGREDTVLQTRWTQKGRLKIHEIMTEFGYEANLGGA | not soluble |
| MSLDAENRAFYKIFTLKNNNLCKNSTLLEKIFKNNVEEFDFSLVKQNLEHEKNCVITSTMNQTIFFENMNSKEMGNKAYSFFNQTVLNNKGNTSLEEQISDIFDRCVYMNAEKSSSYIKLLEQDYNQVDMFVSLIFIGPYRHNLILITPVTLHLTLIPKNVKNNSFKNLFSGDMHFNMVTMTHLTEGHHHHHH | soluble |
| MGSDKIHHHHHHMFLSELYRYPVKSGQAQSLKASPVGLLGLQGDRRWMVVEEENGRFLTQRAWPQLGQIDASDDDSGQLLLQAPGQAPLRVPVPPADDALRGVTIWRDTLRVPDAGDAAAAWLSELLGKAVRLVHCPEQRARYLPNGYGLNSDRAAFPDGFPLLLIGQGSLDELNRRIGRPMSMRRFRPNLVVQGAEPFAEDGWKRIRIGSLVFRVLKPSVRCIFTTIDPVTGERSADREPMATLKTFREKEGDVLFGQNLAVDGSGWLEVGMEVEILE | not soluble |
| MKTKTDFLKMKEQGEPITMLTAYDYPSAKLAEEAEVDMILVGDSLGMVVLGYDSTVPVTVEDMIHHTKAVRRGAKETFIVTDMPFMSYHVSLQDTMVNARRIVQESGAHALKVEGAGEVISTIHYLTNAGIPVVAHLGLTPQSVGVLGGYKVQGKDAESAKKLIEDAKKCEEAGAIALVLECVPMQLAELISEQLTIPTIGIGAGQKVDGQVLVYHDLISYGVNRVPKFVKQYTSVQEEIVRGISQYVAEVKTRQFPEEKHSFTMKEEECLALYGGKQS | not soluble |
| RRVVVTGLGMVTPLGRGVETTWRRLIDGECGIRGLTLDDLKMKSFDEETKLYTFDQLSSKVAAFVPYGSNPGEFDEALWLNSKAVANFIGYAVCAADEALRDAEWLPTEEEEKERTGVSIGGGIGSICDIVEAAQLICEKRLRRLSPFFIPKILVNMASGHVSMKYGFQGPNHAAVTACATGAHSIGDATRMIQFGDADVMVAGGTESSIDALSVAGFSRSRALSTKFNSSPQEASRPFDCDRDGFVIGEGSGVIVLEEYEHAKRRGAKIYAELCGYGMSGDAHHITQPPEDGKGAVLAMTRALRQSGLCPNQIDYVNAHATSTPIGDAVEARAIKTVFSEHATSGTLAFSSTKGATGHLLGAAGAVEAIFSILAIHHGVAPMTLNVKNPDPIFDKRFMPLTTSKKMLVRTAMSNSFGFGGTNASLLFASI | soluble |
| MSLDNESLLAILNNWSATNYAKGNYILREISSKFLAKISIDSNDYLLDAGCGDGSFTQMLANLVPDGYVLGLDRSKTMIDYANKHCRSINVRFDIGDIQEPIIYGPFDNILSFWCLHWTDLEKSLSNLYHVLKPGGKICAIFSSGKQSTLFEVLNSLQFQNLYPDVAKNVVQSKMMRENYSVQCRRALDNLPFKSISFVVEHCQVELPDLGLFENFIHGAPLFKDLPGKMYQDIVNGMVQFFDEYCKKKYGGKWVYETTPYFLTITREGHHHHHH | soluble |
| MAGYDVVVVGGGHAGLEAAWAAAALGVRVALVTVNPDRIGMMPCNPAVGGPGKSQLVAEVVALGGLMGRAADAAAIHTRVLNRSKGPAVQSLRVQVDRDLYALKAQEILAERPVEVLRGEVAALWVEGGRLLGVRTVDGRTLPAKAVVVAGGTFLSGVVWYGRKSRPAGRQGEPPARFLSQSLKAVGHTLRRFKTGTPPRIRADSVDFGRLEVVPPEVPPGSFTGNPGPHAARLPTWQTRTTERTHRLILENLHLSPLYAGDIQGIGPRYCPSIEDKVVRFADKESHLLFVEPDGLSTTEVYLQGFSSSLPPELQEEMVRSLPGFERAVIQRYAYAVEYDSLDPTELTRGLQSRFLPGLFSAGQVNGTSGYEEAAAQGLLAGLNAARFALGLPEVHLPRESGYIGVLVDDLVGRGTDEPYRMMTSRVELRLLCRADNADERLTPLAVAWGLRPREDLERVEAKYRRVAAELRRLEALRVEGVSGLQWLRRPENTYRALAERFPPPEPLSPEEAYQVEVRAKYAGYIERQERLREKMRDLEAFRIPEGMDFPKVPGLSREAAEKLSRHRPKSLAEAARIPGVRDSDLTALAVHLRRGA | not soluble |
| MAKEFLIELGTEELPPKQLRTLAEAFAANFAAELATADIAHEGVTWFATPRRLALKVANLAESQPDRVVEKRGPAVNVAFDADGKPTKAAEGWARGNGITVEQAERLVTDKGEWLLFKEQVQGQQTASVVVEMAAKALANLPIAKPMRWGDKETQFIRPVKTLTILFGSELIQGEILGVASARTLRGHRFMGEAEFTIESAEQYPAILEERGKVIADYATRKAMIIEGSQQAAQQLGGIADLEDALVEEVTSLVEWPVVMTAKFEEKFLKVPAEALVYTMKGDQKYFPVYDASKKLLPNFIFVSNIESKEPRHIVEGNEKVVRPRLADAEFFFNTDRKRPLVDRLPLLENAIFQQQLGTIKDKTDRITELAGYIAEQIGADVEKSKRAGLLAKCDLMTSMVFEFTDTQGVMGMHYARHDGEAEEVAVALNEQYMPRFAGDELPSRGVSAAVAMADKLDTIVGIFGIGQAPKGSDPFALRRASLGVLRILVEYGYQLDLVDLIAKAKSLFGDRLTNANVEQEVIEFMLGRFPTWYQDAGFSIDIIQAVLARNPTKPADFDQRVKAVSHFRALEEAEALAAANKRVGNILAKYDGELGEEIDLALLQEDAEKALAEAVEIMAEALEPAFATGNYQEALSKLAGLRAPVDAFFDNVMVMADDEALKKNRLTLLNKLRNLFLQIADISLLQK | not soluble |
| MIAKTDSDIRHVTPSGGNVFADLGFHKQDAEKFYADSLNEIENTLAIKQQLMEEITLWITQNQMKQAEVATVLHISRPRVSDVVNKKCSKFTIDALVNMLSRIGKPVRVMVGP | not soluble |
| MNAPLRFGPYAVSRFVDGVYKAPVGHLIHRQGAVALAAVVAGLEGETVDMDVNCFALSGPDGVWLIDAGCGTAWGAAYGHARAAMLAAGIQPDDVSRVILTHIHGDHALGLIDGDRPYFPNAEIWVPEADLAFFTNADARKTLPPARQGGFDLAARLLDICGAMLRPIPTGTVAEDIEAIAMPGHTPGHMGYLIGSGDARLLLWGDVLHVGELQAADPEIAFVYDIDSELAYATRLAALAEAADHGWLVSGGHLGGFFHIERRGDSFRFVPQPG | not soluble |
| MTLVGECLSPHVTMAQRDHIRLEWRMPYRVLERTRQVAWTCFCRASVYELCEGGGQAFLRRTVQLDGKPTAHETSPCSISEARVIWTALLSGRAR | not soluble |
| MREVISIHVGQAGVQIGNACWELYCLEHGIQPDGTMPSDQQADGESFTTFFSDTGNGRYVPRSIFVDLEPTVVDEIRTGTYKKLFHPEQMITGKEDAANNYARGHYTVGKELIDTVLDRIRRLADNCSGLQGFFVFHSFGGGTGSGFTSLLMERLSVDYGKKSKLEFSIYPAPQVSTAVVEPYNSILTTHTTLEHSDCAFMVDNEAIYDICRRNLSVDRPSYTNLNRIISQVVSSITASLRFDGALNVDLNEFQTNLVPYPRIHFPLAAYTPLISADKAYHEALSVNDITNSCFEPANQMVKCDPRHGKYMAVCLLYRGDVVPKDVNTAIAAIKTKRTIQFVDWCPTGFKVGINYQPPTVVPGGDLAKVPRAVCMLSNTTAIAEAWSRLDYKFDLMYAKRAFVHWYVGEGMEEGEFTEAREDLAALEKDYEEVGADSNEGGNEEEGEEY | not soluble |
| MSLNKGSERTFNDLVEFIGEEMDFESGFYNDSYLDRRITARMRRTDTEDYQTYQRLLERDNGEREELLDSLSINVTSFFRNPEAWERLRPVLRELTENNRRVRLWSAPSADGREPYSAAMLALDDPEIDARRVEITATDINADILEEARKGTYATSQTTDIADELEPLDDYTKYIEQDGDTFQVRDQVKEMVTFEQHDLIRGDPKRDFDLVFCRNLLIYIDSEFKVPIFETIRGSLREGGYLMIGMTETLPAECRDSFEAVDKRHRIYRREGHHHHHH | not soluble |
| MSEVYRLTCIVCPLSCSIEVEIEAGKIKDIKGYTCPRGKEWAIEEIRAPKRVVMSVIPVEGGKLPTVSVKTEKPIPKDKIPELMKMLAKLKLKAPVKVGQVVGEFEGVKIIATREALEHHHHHH | not soluble |
| MSEAKDNGSRDEVLVPHKNCRKNTTVPGKKGEEKSLAPVFAEKLISPSRRGAKLKDRESHQENEDRNSELDQDEEDKESFCRGFPMSGCELETSCCVCHSTALGERFC | soluble |
